# Reference: the supplement of paper PMC7877785
# ± gives the uncertainty stated by the source.
# Assay: self-splicing fitness, log relative to wild type (ln ratio); higher = more splicing; Tetrahymena group I intron in knt gene, E. coli kanamycin selection, DiMSum; sequences stand for … in CUCUCU…GGAGGGAAAAGUUAUCAGGCAUGCACCUGGUAGCUAGUCUUUAAACCAAUAGAUUGCAUCGGUUUAAAAGGCAAGACCGUCAAAUUGCGGGAAAGGGGUCAACAGCCGUUCAGUACCAAGUCUCAGGGGAAACUUUGAGAUGGCCUUGCAAAGGGUAUGGUAAUAAGCUGACGGACAUGGUCCUAACCACGCAGCCAAGUCCUAAGUCAACAGAUCUUCUGUUGAUAUGGAUGCAGUUCACAGACUAAAUGUCGGUCGGGGAAGAUGUAUUCUUCUCAUAAGAUAUAGUCGGACCUCUCCUUAAUGGGAGCUAGCGGAUGAAGUGAUGCAACACUGGAGCCGCUGGGAACUAAUUUGUAUGCGAAAGUAUAUUGAUUAGUUUUGGAGUACUCGUGGUCG
# How it was run: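 A randomised library covering all eight P1ex-region intron nucleotides was built with the intron in the knt kanamycin-resistance gene on pET-22b(+) and held in E. coli BL21(DE3). Cells were grown overnight at 37°C or 30°C on LB agar, with or without 25 μg/mL kanamycin, plus 100 μg/mL carbenicillin, 50 μM IPTG and 0.2% rhamnose, and pooled colonies were amplicon-sequenced on an Illumina HiSeq 2500. DiMSum fitness is the error-weighted combination of wild-type-normalised replicate fold changes, kanamycin versus none.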
Sequence,self-splicing fitness (ln) (30 °C),self-splicing fitness (ln) (37 °C)
UACCAGCAAUAUUACGCAGU,-4.06 ± 0.27,-2.62 ± 0.18
UACCAGCAAUAUUACGCGGC,-3.78 ± 0.13,-3.27 ± 0.18
UACCAGCAAUAUUACGCUAA,-1.14 ± 0.081,-0.492 ± 0.092
UACCAGCAAUAUUACGCUAC,-3.17 ± 0.2,-1.83 ± 0.18
UACCAGCAAUAUUACGCUCA,0.178 ± 0.073,0.378 ± 0.081
UACCAGCAAUAUUACGCUUA,-0.566 ± 0.056,-0.478 ± 0.07
UACCAGCAAUAUUACGCUUC,-3.17 ± 0.23,-2.3 ± 0.24
UACCAGCAAUAUUACGGAAA,-0.915 ± 0.073,-0.747 ± 0.077
UACCAGCAAUAUUACGGAGG,-2.34 ± 0.12,-0.914 ± 0.12
UACCAGCAAUAUUACGGCAA,-0.203 ± 0.067,0.462 ± 0.094
UACCAGCAAUAUUACGGCAC,-2.09 ± 0.066,-1.05 ± 0.067
UACCAGCAAUAUUACGGGAG,-1.64 ± 0.061,-1.01 ± 0.071
UACCAGCAAUAUUACGGUAA,-1.77 ± 0.076,-0.857 ± 0.074
UACCAGCAAUAUUACGGUAC,-3.72 ± 0.22,-2.04 ± 0.16
UACCAGCAAUAUUACGGUGG,-3.17 ± 0.11,-1.87 ± 0.087
UACCAGCAAUAUUACGUAGU,-2.96 ± 0.099,-1.65 ± 0.1
UACCAGCAAUAUUACGUAUU,-2.16 ± 0.1,-2.6 ± 0.18
UACCAGCAAUAUUACGUCGC,-2.97 ± 0.17,-1.88 ± 0.2
UACCAGCAAUAUUACGUGCU,-4.3 ± 0.19,-2.93 ± 0.17
UACCAGCAAUAUUACGUUGA,-1.61 ± 0.049,-0.796 ± 0.062
UACCAGCAAUAUUACGUUGG,-3.21 ± 0.12,-2.85 ± 0.14
UACGAGCAAUAUUACGAAAG,-2.75 ± 0.42,-1.29 ± 0.45
UACGAGCAAUAUUACGAACU,-3.46 ± 0.48,-2.4 ± 0.24
UACGAGCAAUAUUACGACGC,-3 ± 0.27,-2.09 ± 0.35

Sequence,self-splicing fitness (ln) (30 °C),self-splicing fitness (ln) (37 °C)
UACGAGCAAUAUUACGACUC,-2.51 ± 0.21,-2.31 ± 0.36
UACGAGCAAUAUUACGAGCA,-2.48 ± 0.16,-0.109 ± 0.12
UACGAGCAAUAUUACGAGGA,-3.51 ± 0.26,-2.48 ± 0.22
UACGAGCAAUAUUACGAUUC,-3.01 ± 0.28,-2.83 ± 0.3
UACGAGCAAUAUUACGCCAG,-3.79 ± 0.3,-2.88 ± 0.3
UACGAGCAAUAUUACGCCCA,-2.24 ± 0.27,-1.02 ± 0.29
UACGAGCAAUAUUACGCCGU,-2.69 ± 0.46,-2.21 ± 0.29
UACGAGCAAUAUUACGCGCU,,-3.38 ± 0.31
UACGAGCAAUAUUACGCUCU,-1.85 ± 0.21,
UACGAGCAAUAUUACGGGAU,-2.49 ± 0.14,-2.74 ± 0.27
UACGAGCAAUAUUACGUAUC,-2.79 ± 0.16,-2.99 ± 0.27
UACGAGCAAUAUUACGUCUC,-3.24 ± 0.29,-2.56 ± 0.4
UACGAGCAAUAUUACGUCUU,-3.95 ± 0.33,-3.41 ± 0.24
UACUAGCAAUAUUACGACAA,-0.443 ± 0.12,-0.256 ± 0.11
UACUAGCAAUAUUACGACAU,-1.645 ± 0.014,-0.715 ± 0.033
UACUAGCAAUAUUACGAGAG,-2.94 ± 0.13,-2.43 ± 0.18
UACUAGCAAUAUUACGAGGA,-3.18 ± 0.2,-1.54 ± 0.13
UACUAGCAAUAUUACGCCAG,-0.0426 ± 0.17,-1.03 ± 0.29
UACUAGCAAUAUUACGCCCU,-0.435 ± 0.14,-0.784 ± 0.15
UACUAGCAAUAUUACGCGAA,-1.97 ± 0.2,-1.18 ± 0.14
UACUAGCAAUAUUACGCGCU,-3.19 ± 0.18,-1.8 ± 0.15
UACUAGCAAUAUUACGCUGC,,-3.01 ± 0.43
UACUAGCAAUAUUACGCUGU,-4.54 ± 0.28,-3.27 ± 0.33
UACUAGCAAUAUUACGGAAG,-3.07 ± 0.26,-2.91 ± 0.43

Sequence,self-splicing fitness (ln) (30 °C),self-splicing fitness (ln) (37 °C)
UACUAGCAAUAUUACGGACA,-0.57 ± 0.13,-0.47 ± 0.16
UACUAGCAAUAUUACGGAGC,-1.89 ± 0.25,-2.56 ± 0.3
UACUAGCAAUAUUACGGCCA,-0.179 ± 0.15,0.376 ± 0.16
UACUAGCAAUAUUACGGGAC,-3.54 ± 0.17,-2.72 ± 0.16
UACUAGCAAUAUUACGGGGU,-4.05 ± 0.19,-2.71 ± 0.2
UACUAGCAAUAUUACGGUAG,-1.92 ± 0.11,-1.09 ± 0.12
UACUAGCAAUAUUACGUACU,-2.51 ± 0.19,-0.347 ± 0.13
UACUAGCAAUAUUACGUAGC,-2.83 ± 0.17,-2.19 ± 0.27
UACUAGCAAUAUUACGUCAA,-1.32 ± 0.21,-1.25 ± 0.17
UACUAGCAAUAUUACGUCGG,-2.29 ± 0.15,-2.18 ± 0.18
UACUAGCAAUAUUACGUCUA,-0.655 ± 0.12,-0.565 ± 0.11
UACUAGCAAUAUUACGUGAU,-3.07 ± 0.11,-1.17 ± 0.12
UACUAGCAAUAUUACGUGUG,-1.37 ± 0.067,-0.828 ± 0.072
UACUAGCAAUAUUACGUUUU,-3.49 ± 0.19,-1.82 ± 0.15
UAGAAGCAAUAUUACGAAAA,-2.69 ± 0.2,-2.02 ± 0.17
UAGAAGCAAUAUUACGAACU,-1.79 ± 0.14,0.0205 ± 0.13
UAGAAGCAAUAUUACGAAGA,-1.77 ± 0.18,-0.969 ± 0.17
UAGAAGCAAUAUUACGAGUU,,-2.07 ± 0.33
UAGAAGCAAUAUUACGAUAC,-2.87 ± 0.32,-2.46 ± 0.27
UAGAAGCAAUAUUACGAUCG,0.151 ± 0.093,0.149 ± 0.11
UAGAAGCAAUAUUACGAUGA,-0.692 ± 0.13,-0.446 ± 0.1
UAGAAGCAAUAUUACGAUUC,-2.82 ± 0.17,-2.06 ± 0.21
UAGAAGCAAUAUUACGAUUU,-0.745 ± 0.067,-1.11 ± 0.095
UAGAAGCAAUAUUACGCACU,-0.642 ± 0.15,-0.846 ± 0.17

Sequence,self-splicing fitness (ln) (30 °C),self-splicing fitness (ln) (37 °C)
UAGAAGCAAUAUUACGCAUG,-1.12 ± 0.1,0.583 ± 0.12
UAGAAGCAAUAUUACGCCAG,-1.3 ± 0.16,-0.617 ± 0.21
UAGAAGCAAUAUUACGCCGA,-1.47 ± 0.32,-1 ± 0.25
UAGAAGCAAUAUUACGGCUA,-0.274 ± 0.12,-0.13 ± 0.16
UAGAAGCAAUAUUACGGUUG,-1.79 ± 0.089,-0.948 ± 0.11
UAGAAGCAAUAUUACGUAUC,-3.43 ± 0.28,-2.01 ± 0.15
UAGAAGCAAUAUUACGUCUA,-1.81 ± 0.16,-0.539 ± 0.14
UAGAAGCAAUAUUACGUGGC,-3.12 ± 0.21,-3.09 ± 0.25
UAGAAGCAAUAUUACGUUCG,-0.157 ± 0.067,0.264 ± 0.088
UAGAAGCAAUAUUACGUUUC,-2.28 ± 0.16,-0.293 ± 0.17
UAGCAGCAAUAUUACGAACG,-0.486 ± 0.06,0.327 ± 0.085
UAGCAGCAAUAUUACGAGAC,-1.84 ± 0.24,-3.06 ± 0.32
UAGCAGCAAUAUUACGAUUA,-0.00343 ± 0.049,-0.0327 ± 0.066
UAGCAGCAAUAUUACGCAAC,-2.32 ± 0.16,-2.24 ± 0.22
UAGCAGCAAUAUUACGCCUG,-1.79 ± 0.11,-0.602 ± 0.13
UAGCAGCAAUAUUACGCGAG,-1.83 ± 0.097,-0.971 ± 0.11
UAGCAGCAAUAUUACGCGUA,-1.2 ± 0.1,0.478 ± 0.1
UAGCAGCAAUAUUACGCGUC,-3.43 ± 0.2,-2.87 ± 0.22
UAGCAGCAAUAUUACGCUUG,-2.3 ± 0.18,-0.988 ± 0.19
UAGCAGCAAUAUUACGGCGG,-0.483 ± 0.084,-0.353 ± 0.13
UAGCAGCAAUAUUACGGCUC,-0.698 ± 0.094,-0.839 ± 0.12
UAGCAGCAAUAUUACGGGAC,-4.55 ± 0.31,-2.75 ± 0.26
UAGCAGCAAUAUUACGGGAG,-2.58 ± 0.099,-2.11 ± 0.11
UAGCAGCAAUAUUACGGUAU,-2.97 ± 0.092,-2.41 ± 0.094
